From the domain aggregation screens of Martell et al. (2025)

assay: soluble fraction after stress (log2 fold change); higher = more stays soluble; pooled small domains, quantitative proteomics; conditions: stress: 75 degC
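Further: 20 min heating vs room temperature control held 20 min.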

Sequence | soluble fraction (log2)
HMQERNYIVRRGDTLWDLAKTYYGSGTKYTVIYDANRDNIEAEAKRRGKQSSNGGYWIYPGTELTI | -0.348
HMQERTVVKGVVVQVSRDEAYVDIGYKQEIPVSKRDLAVPAPDDARDVVKVGDEIDVYIKSLGGDNGG | 0.109
HMQESTPGEGYKWREDVLLRVMSQNGIDESLRDEFVRHAVNYDIDDNMYLKKAEIESAAEAWVLENS | 0.172
HMQESVTVSAQALRRLLEKGDGDAALLYLALLRHHGTIQPRALAGELRWERPRIEAAEEALRQMGLIA | -0.48
HMQETMTNDEVISLTKAGLSSSIIIGKIRSSATNFDLSTDSLIKLKQAGVSDETVAAMLEAKS | 0.0249
HMQGAARGMLFAQAQRWMTKFRIDPQQADRITQAALDPAQTDAILREVRRGYGPSAERALRGIIRRARRA | -1.94
HMQGEAMQETVKKLDAFLQDNSVSMSALARALGVSPSLISQFRSGSYKGDSQAIAAKINSYIDNHNKKSK | -0.0127
HMQGEKDDLWREVLDNPDAWWDNRERKNAPGGNPRYPDFKHKDSQTPLWIESRDTPQWAIDALL | 0.259
HMQGNGKVATELLKDIIASDNLYINAMRMLVMHYNSKGTNQVEMVKLLHNILDLVPDDEYANEILKSAKKA | -0.0872
HMQGPDPYAVLGIDRHADERAIKRAYRKLISEHHPDRLGDLPEDMRKRAESRASEINAAYDRIKEARGF | 0.0522
HMQGQVLQETARKARSQLDSEIPGFNDALYQNLIKSSENYGYKAEEVAQWVDPRAIKVLNDAYQFQQLKAG | -0.172
HMQGTTTELLIQKSALYEELNDPEKALNAMFDAFEMDSLNVNVLHRIVSLLLDKEENEKAILYNQLIIDH | 0.0862
HMQHQSGLKSGEFEAISQQLQALLKENPLSLQEIKDKMQVTENHLIKVVSYLVSEEIIRQENGYLK | -0.976
HMQIAGLDDIDNRIIDLLLKNGRASYSEIGAAVGLSRTAAKNRIRALEASGIIRGYQAILDPQA | -0.708
HMQIDDSVELSAIVEKLLAANPEQVEQLKNGKTKVLGYFVGLAMKETQGRANPQKVNELIQTHL | -0.519
HMQIDRLFDIVYTLLRKKSATAAELAERFGVSKRTILRDIETLSVAGIPILTSPGKGGGVSISSSF | -0.892
HMQIIETTVGRVLFNEKVPEAAGYINEVLTKKSLRDIIHGILKKTSVPETAAFLDEIKSLGYNFAF | 0.0925
HMQIIEVPYSEFLKKLESGQISEVSRDSYQIVFTDRSQPPIIYKTGLMEDPGLVDKMQEAGVTFTSP | 0.256
HMQIKNVDYGTFLDMLDEKNVKEVEIEDEQIVFTDNADPTGYYTTGRMEDPDLVDRLHNSGATFSAI | 0.134
HMQILLASHAELAKGILSAVELIAGTQQNLKAYSAYTEAVDVHFKDQMLQDLNKMDPEDEVIL | 0.137
HMQINLSEWVLAAREYAGPEMTQEKLAEHLGRTKANVSAMENGRSKPSFEQMMEIHRVTGYPLPYQ | -0.303
HMQISDAGALLDAVRRVLAENPAQVEQFRAGKEKVMGFLVGQVMRATGGKANPQMLNDVLREELS | -0.196
HMQISDEGELSGIVRKIIDANPQSVADYKAGKKKAIGFLVGQIMIETKGRANPASVNELLIKKLE | -0.434
HMQISDNTILEDAVSRIIDENPKSVSDYFQGKEAVVGFFIGQIMRETKGTANPKIAREIVISHLEAI | -0.576
HMQISGIHLYERRITKDDEWAERKLSEISLAGSLVILILRNEHVVIPNGETVLKENDLLYISD | -3.66
HMQISGSEELEKIVQTVLEKNTDVVEEYKSGKTKVFAFLMGQVMKESRGKANPRLAKDILEKFLA | -0.429

Sequence | soluble fraction (log2)
HMQITAPVQKIDGVEYYMHKVEQGQTLYSISKLYNVGVKEIQKANQLGTEGIQLGQVLKVRKGG | -0.2
HMQIYLTPEQFKIIDFMEQMGKITVKDVMDILNIPKRTAQLHLQKLKTLKMIAQTGKGPSSAYLL | -1.11
HMQKDAYVPDIISKLKSSRMIVVEGTIYPLLTRLKNTGLLSYRWEESLQGPPRKYYSITEQG | 0.268
HMQKDYKTRLQEYYAKVGKKVNYMDSSTGPDHDKKFQTQVFLDKEIIGVGEGKSKKSSQQEAAKQALEKI | 0.267
HMQKFINQEHEKAYNLMLEKDYQQALKIFDDLIYLFPNEANLLSDRGVIFIHLNKKEAALQDFDQAVF | -1.97
HMQKIEKVDYGTFLKMIENGEIDQVNLTEKKISFTTDKDAETVYETGRVEDPNIVDRLYQADVEFTQEI | 0.598
HMQKIENYDQFVQAFKRLSGLDLKLYKENQMKRRINNFINNHGFKENYDQFFQAITGNKELYNAFFKHLTI | -0.527
HMQKKYLAVKEYLLEQINSGAYQPDEPIPPEREMAAMLGVNRMTLRRAVEELMYEGLLIRKKGSGTFLTK | -2.03
HMQKLSPKQRRGNIIELIKENPTITAKNISTIFNLNQRTIERDLAKLTEEGYIKYEGSSKDGKWVFL | -0.134
HMQKNKSVLFKDIVIAFNQNPKKLFNYKQLAADLDIHSEAERMLISQLLNDLKDQNFLEEVERGKYKLKL | -0.766
HMQKPIKPVKMHTVGPKENLSSIGRMYEVNGRVLANYNNIDYDKGLTIGQVLKIPPKGTTLEQVT | 0.853
HMQKTIDWSQVDKEQYLSAMERSPVNDLEIKAILAKALTSDINNRELFMKGLDHSYYFEGYQLFKSE | -0.526
HMQKTQVVEVAGKSYQLTKMDARTGSYVAFKVAGVLAPSGGKTAEMAAALMGMPRKDFDELQSLLLRTV | 0.025
HMQKYSTIIGVIELRQSGIGYRTTKKRYNIGNSTVTLIMNRFHELGLSLEELKAMPPKKVEEAFYPPE | -3.22
HMQLASILDDIPGIGKKRKENLLTHFGSFSKIQSADIDALAEVPGISRDLAETIHTYLKTHQ | -0.0246
HMQLDLSDPSKNKLDSIVSLPIKSLKAVEANGEILFMSENGRFVLRGQLYDIWYKDTLDTSAQIQDAATRI | 0.331
HMQLDLTSTLDHMYKQMRNDHPRALLMAVEKEMVLRALKETDGNQLRASDILGISRSTLRKRIEEFDINS | -1.24
HMQLEPLITSVIPVNFAKAGEVATTIKGKEVGLVSDRGSITAESRTNVLIVKDIKKNVDDISAMVKRLD | -0.00331
HMQLGEEAGDELVAIVRSVINDNDKALADYLAGKSSALKFLLGQVMRQTKGRADHALVQSLLEAELEAL | -0.0341
HMQLHDTMKRVYEALDISEQKLAESLGLKLSTIINWQKNGISKIGINKLNQTFGLDMQWILTGQGEPFI | -0.0293
HMQLLDIGSAVRIIREPYFGRLGTVVELPPELMEIESGTHARVLKAKLDDGTVAVVPRANVEIIVE | -0.785
HMQLNNTDELEKIILKILENNPKQVDQFLAGKQKLLGFFVGQAMRATSGKANPKTVNDLLEKFLSK | 0.027
HMQLPDLDEIRQMRKRLDLSQRELAALAGVSQSLIAKIEKGSIDPSYDNVRKIFNAFENILKKRALE | -0.119
HMQLPIGDVKLSVEHLSSGTALQDISFEVHRGEIFGFLGLVGAGRSETAETIFGLREKTDGKISIDGTVL | -0.0579
HMQLPTNAAAILRYLSSGAVKGVGSATAVRIVEKFGEETLNILEQDPLRLAEIRGISRDKAKKIGEDFASQ | -0.322
HMQLSMLPYGFARRHGVLLVEQDEQPTLIHRAGITATVIAEVQRVAGQIDAWRLVDDARFDQQLAEVYRD | -1.33

Sequence | soluble fraction (log2)
HMQLTPAQHAILAYAIEHTGGKIEWFPDNIKGGARTKVLEGLFNKALITRDSTDWFVAAEGYDALGR | -0.949
HMQLYSLEVLSKKKVDLIENNKNLINLYFNKENGEYSYRLIFKNRKELYQVKDTLDNSSDVVSIKLDL | -2.27
HMQMGLNEAYRVLHVSPDAPWREVQSAYKERMAKSHPDKVSHLGEELQEKAKELTVEINKAYNTIKRYKK | 0.47
HMQMKDRILRIMEHEGISPSKFAEEIGIQRSAMSHIISGRNNPSLDVLTKIMQRFTYVDTDWLLFGKGSMV | -1.99
HMQMPDLTGKPRAEAVTTLAALGFTDVKFLDASAGDEPLDYVADQVVRTSPEAGAALASGQQITIYLAT | -0.203
HMQMSDTSMIRDLVLQVLAENPQSIEDFKNGKDRAVGFLVGMVMKKSQGKANPQITNQMIVEELKK | -0.228
HMQMSERENTILLTKRYIERGEYERAMNLLDSLLIKNALDEEALAMIDEIIALKAGASLQDFPRY | -0.797
HMQMTTPQMVPLFTDLSVDDSASIIKDLERQAVPYQIKSDGAIIMVPKDKVTRLRMKLAESGLPK | 0.488
HMQNDDLTKLDGIGPYIEQRLNDIGIYNYEQLSKLNTEDIQKITELIDFFPGRIERDNWVSQAQLLKI | -0.515
HMQNDILIQADEIVGDYFDMDKEALKMNKQAVIADIEKRQATAQGDEASALHYAKQKVENEFEDDGSQKD | 0.109
HMQNKFLDIVGEIEVKAVDYYLLKDTSGLVIKFPKNLVFANGLKIADNKIGLTVSLYGAWVHEET | -1.08
HMQNKYIIKQGNSGELVEVLQELLNLKQDGVFGPQTKKAVIAFQQKHKLVADGIVGPMSWRKLNFNPEELF | -2.36
HMQNLISSDEAKNIALQHANLTDNQVTFIKVSKDYDDGIHIYEVEFHYNNREYNYDINAINGTILSYEQ | -1.34
HMQNNKITIYISGAVNRPGIVTIESDKRLYDAVELLGGTTKEADLNGVNLSVRLEDEQHYIIPKIGEA | -0.432
HMQNNWFYEENGQRKGPVSENEMVQFIKSSVISHGTSVWKQGFPDWLKVENTDLRVHLDNSAP | 0.105
HMQNREQNILDGKSILDKELKRVGLLNQSAAIMAQEMKFNSQDDLFAALGSGATRIGQIINHLQKQS | -0.00272
HMQNSMTTTPDVVGKTGTFAEQMLKAANLNVQFAGDSSGKVVAQDVEAGTSAAYGTIITLTMDS | 0.693
HMQNVKIKAEVKGEVISPGVYELDEESRIQDLIDASGGFSDKAYYDNINLSMKLKDEMVLVVYDKDKI | -0.271
HMQPADYSDLYAAAKSAGEADMRAAFALTDKQERTAAVNAARETIKAALSEEQLADANLGSALKKLEAGV | -0.122
HMQPASPELNNQEKKVLQALPENEVIHIDELSDKIQIPVGELLTVLLSLEMKETVIQEPGKFFRRR | -1.29
HMQPDFLDAKASLALLGVRPQTLYAYVSRGAIRSVPQPGTKAHLYSRSDIERVMARAAARAG | -1.34
HMQPDYRVLYSNFSDKDGGAIVAALEKMNVPYKFSEGGSAILVPAGQVHQARLKLAADGLPK | 0.0648
HMQPLGHDLTERELDVLALMVTGMNNSEIADKLVVSRSTIKYHVSNILSKLQATSRTEAVAYALQQNLVH | -2.51
HMQPQIDFEIDVEVRASSLRIVAAPNSDVLVATVGRGEHVVQLTYPKDGWVMIRTADDRVGFVPESLLL | -2
HMQPQYSVLFSNIEEKDGGSIITLLQQGNVPYKVENGGTTILVPANRANELRLTLAAQGLPK | 0.449
